Test results from patent publication US20250313612A1 (Adimab, published 2025).

Columns and labels:
[1] = target: T1, RSV F protein of subtype A (strain A2) on recombinant mKate-RSV (Respiratory syncytial virus subtype A …, UniProt P03420 26-574); test: cell-based or functional assay
[2] = target: RSV F protein of subtype B (18537) on recombinant mKate-RSV (Respiratory syncytial virus subtype B …, UniProt P13843 26-574); test: cell-based or functional assay
[3] = target: T2, RSV F ectodomain stabilized in the postfusion conformation (F ΔFP), subtype A (Respiratory syncytial virus subtype A, UniProt P03420 26-109; P03420 147-524); test: BLI, IgG on AHQ sensors, 100 nM antigen
T2 construct: extracellular domain; trimer; also called Postfusion subtype A; Postfusion RSV F

[4] = target: T3, RSV F ectodomain stabilized in the postfusion conformation (F ΔFP), subtype B (Respiratory syncytial virus subtype B, UniProt P13843 26-109; P13843 147-524); test: BLI, IgG on AHQ sensors, 100 nM antigen
T3 construct: extracellular domain; trimer; also called Postfusion subtype B

[5] = target: T1, RSV F protein of subtype A (strain A2) …; test: cell-based or functional assay; remark: listed apart in the source
[6] = target: human metapneumovirus (HMPV) F protein on GFP-expressing hMPV (NL/1/00, A1 sublineage) (human metapneumovirus); test: cell-based or functional assay

Binder	Neut IC50 (µg/ml) subtype A [1]	Neut IC50 (µg/ml) subtype B [2]	Kd [3]	Kd [4]	RSV-A2 IC50 [5]	HMPV-A1 IC50 [6]
ADI-14559 (antibody, V domains shown, IgG; also called Antibody Number 119) VH: EVQLLESGGGLVKPGGSLRLSCAASGFIFTNAWMSWVRQAPGKGLEWVGRIKRKTETGTTDYAPPVKGRFTISRDDSRSTLYLQMNSLKTEDTAVYYCTTGPPYQYYDSTGYSVVDYWGQGTLVTVSS VL: SYELTQPPSASGTPGQRVTISCSGSSSNIGSNIGINYVYWYQQLPGTAPKLLIYSTNQRPSGVPDRFSGSQSGTSASLAISGLRSEDEADYYCAAWDDSLSGPVFGGGTKLTVL	0.057 µg/mL	0.031 µg/mL	0.204 nM	0.129 nM		
ADI-14561 (antibody, V domains shown, IgG) VH: QVQLVQSGAEVKKPGSSVRVTCKASGGTVSDYAITWVRQAPGQGLEWMGGFIPMFGVAKDAEKFQGRVTLTGDKSTNAVYMELSSLTSEDTAVYYCARSKRLPAGLSTSDYYYYYLDVWGKGTTVTVSS VL: EIVLTQSPGTLSLSPGEGATLSCTASQNVFRTHVAWYQQTPGQAPRLLIYGGSTRATGIPDRFSGSGSGTDFTLIISRLEPEDFAVYYCHHFGTTPWTFGQGTKVEIK	> 10 µg/mL	> 10 µg/mL	3.09 nM	2.28 nM		
ADI-14549 (antibody, V domains shown, IgG) VH: EVQLVESGPALVKPTQTLTLTCTFSGFSLSSRRMCVSWIRQPPGKALEWLARIDWDDDKSYSTSLKTRLTIAKDTSKNQVVLTMTNMGPADTATYYCARTPIYDSSGYYLYYFDSWGQGTLVTVSS VL: not shown	> 10 µg/mL	> 10 µg/mL	0.326 nM	2.49 nM		
ADI-14441 (antibody, V domains shown) VH: QVQLVQSGAEVKKPGSSVKISCKASGGTFNSQAIHWVRQAPGQDLEWMGNIIPGFGSPNSAQNFQGRVTFIADDSTGAAYMDLSSLKSEDTAVYYCATAGWFGESVHLDSWGQGTLVTVSS VL: not shown					> 25 µg/mL	37.8 µg/mL
ADI-14552 (antibody, V domains shown, IgG) VH: EVQLLESGPELKKPGSSVKVSCKASADTFNGHSIAWVRQAPGQGLEWVGGFIPIFGKAYYAQNFQGTVTISADSSTRTVYMDLFNLRSEDTAVYYCARSRKNVIGDTSAWEHMYFYMDVWGTGTTVTVSS VL: EIVLTQSPGTLSLSPGERVTLSCRASESINKNTYLAWYQQKPGQAPRLLIYGASSRATGIPDRFSGSGSGTDFTLTISRLEPEDSAVYYCQQYGRSMTFGGGTKVEIK	> 10 µg/mL	> 10 µg/mL	1.27 nM	1.11 nM		
ADI-14560 (antibody, V domains shown, IgG; also called Antibody Number 120) VH: QVQLVQSGPELKKPGESLKISCKASGYSFTSFWIAWVRQMPGKGLEFLGIIYPGDADTRYSPSFQGQVTISADKSINTAYLQWNNLKASDTAMYYCARQTTMTPDAFDLWGQGTTVTVSS VL: EIVLTQSPATLSLSPGERATISCRASQSVSSYLAWYQQKPGQAPRLLIYEASDRATGTPARFSGSGSGTDFTLTISSLEPEDFAVYYCQQRSNWGVGTFGQGTKVEIK	> 10 µg/mL	> 10 µg/mL	0.874 nM	0.329 nM		
ADI-14448 (antibody, V domains shown) VH: EVQLVESGGGLVKPGGSLRLSCAASGSSFRYSYMSWVRQAPGKGLQWVASISPSSTYTDYADSVKGRSTISRDHDKISLQVNSLRGDDTAVYYCVRHMNLVMGPFAFDIWGRGTMVTVSS VL: QSVVTQPPSLSGAPGQRITISCTGSSSNIGAGYDVNWYQQLPGTAPKLLIYAKTNRPSGVPERFSGSESGTSASLAITGLQPEDEADYYCQSYDRIGMYVFGTGTKLTVL					0.04 µg/mL	0.05 µg/mL
ADI-14554 (antibody, V domains shown, IgG) VH: QVQLVQSGGGLVKPGGSLRLSCAASGFAFSNAWMSWVRQAPGKGLEWLGRIKSETDGGTTDYAAPVKGRFSISRDDSRNTLYLQMNSLESEDTAVYYCTTGPPYKYFDSTGYSVVDYWGQGTLVTVSS VL: SYELTQPPSASGTPGQRVTISCSGSSSNIGSNYVYWYQQLPGTAPRLLIYSTNQRPSGVPDRFSGSQSGTSASLAISGLRSDDEADYYCAAWDDRMSGPVFGGGTKLTVL	0.736 µg/mL	0.787 µg/mL	0.388 nM	0.197 nM		
ADI-14553 (antibody, V domains shown, IgG) VH: QVQLVQSGTEVKKPGSSVNVSCKAVGGKFTSYNINWVRQAPGQGLEWMGRIIPTLGITYFAQKFQGRLTINADRSTSTAYMDLSSLRSDDTAVYYCARSNPVARDFWSGYSDDSSYAMDVWGQGTTVTVSS VL: ETTLTQSPGTLSLSPGDRVSLSCRASQTVDKNYVAWYQQKPGQAPRLLIYGASKRAADIPDRFSGSGSGADFTLTISRLEPEDFAVYHCQQYGASAFSFGGGTKLEIK	> 10 µg/mL	> 10 µg/mL	67.1 nM	117 nM		
ADI-14501 (antibody, V domains shown) VH: QVQLVQSGAEVKKPGSSVKISCKASGGTFKSQAIHWVRQAPGQGLEWMGNIIPTYGSPNFAQRFLGRVTFIADDSTGAASMDLYRLTSEDTAVYYCATAGWFGELVRFDSWGQGTLVTVSS VL: DIVMTQSPATLSVSPGERATLSCRATESISSNLAWYQQKPGQAPRLLIYGASTRATGIPARFSGSGSGTEFTLTINSLQSEDFAVYYCQQYNNWPPLTFGGGTKVDIK					12.4 µg/mL	31.4 µg/mL
ADI-14547 (antibody, V domains shown, IgG; also called Antibody Number 107) VH: EVQLLESGPVLVKPTETLTLTCTVSGFSLANPDVAVAWIRQPPGKALEWLAHIFSGDETSYTTSLQNRLTISKDTSKSQVVLIMTKMDPRDTGTYFCARVLTTWHGPDYWGQGTTVTVSS VL: ETTLTQSPLSLPVTLGQPASISCRSDQSLVYHNGNTYVSWFHQRPGQSPRRLIYKVSIRDSGVPDRFSGSGSGTDFALKISRVEAEDLGVYYCMQGSHWPHTFGQGTKVDIK	0.198 µg/mL	0.252 µg/mL	0.169 nM	0.269 nM		
ADI-14546 (antibody, V domains shown, IgG) VH: QVQLVQSGAEVKKPGSSVKVSCTASGGSFSTNSIAWLRQTPREGLEWMGGIIPVFGAAKYAQKFQGRVTISADASTTTAYLELHNLRSEDTAVYYCARGISPRTNSDWNHNYFYYYMDVWGKGTTVTVSS VL: ETTLTQSPGTLSLSPGERATLSCRASQSIFTIYLAWYQQKPGQAPRLLIYSASNRATGIPDRFSGSGSGTDFTLTISSLEPEDFAVYYCHHYGTSPHTFGQGTRLEIK	> 10 µg/mL	> 10 µg/mL	0.589 nM	0.472 nM		
ADI-14539 (antibody, V domains shown, IgG; also called Antibody Number 99) VH: QVQLVESGGGVVQPGRSLRLSCAASGFAFRVYDIHWVRQAPGKGLEWVAVAWSDGRDEFYADSVKGRITISRDNSKNTVYLQMSSLRVADTAVYYCARDSGTLTGLPHDAFDVWGQGTTVTVSS VL: DIQLTQSPSTLSASVGDRVTITCRASQSITTRLAWYQQKLGKAPKLLVYKASTLEIGVPSRFSGRGSGTEFTLTISSLQPDDFATYYCHHYNSYSWTFGQGTKVDIK	0.727 µg/mL	0.302 µg/mL	0.738 nM	5.71 nM		
